biological target: T1, HER2 extracellular domain (human, UniProt P04626 23-652); experiment: ELISA, HER2 ECD coated on plate
T1 construct: extracellular domain; also called ErbB2; HER2 ECD
Description: (§1) The binding potency of antibodies to the antigen HER2 was determined using an ELISA assay. The HER2 extracellular domain was coated overnight on 96-well plates by adding 0.2 ug/100 ul/well of HER2 extracellular domain solution. The plates were washed 6 times with PBS, and blocked with 3% BSA and incubated for 2 hours. The plates were again washed 6 times with PBS. After 1 hour of binding, the plates were washed 6 times with PBS. Horse radish peroxidase (HRP) conjugated secondary antibody was added and incubated for 1 hr. HRP substrate TMB was added to each well and luminescence was read on plate reader. The data were then fitted into 4-parameter sigmoidal curve to generate IC50. Each sample was run in triplicate.

Row | Binder | binding result
1 | mAb T2 (antibody, human IgG1, kappa, V domains shown, Pertuzumab heavy chain with a mutated trastuzumab light chain) VH: EVQLVESGGGLVQPGGSLRLSCAASGFTFTDYTMDWVRQAPGKGLEWVADVNPNSGGSIYNQRFKGRFTLSVDRSKNTLYLQMNSLRAEDTAVYYCARNLGPSFYFDYWGQGTLVTVSS VL: not shown | binds
2 | mAb T3 (antibody, human IgG1, kappa, V domains shown, Pertuzumab heavy chain with a mutated trastuzumab light chain) VH: EVQLVESGGGLVQPGGSLRLSCAASGFTFTDYTMDWVRQAPGKGLEWVADVNPNSGGSIYNQRFKGRFTLSVDRSKNTLYLQMNSLRAEDTAVYYCARNLGPSFYFDYWGQGTLVTVSS VL: not shown | binds
3 | mAb T4 (antibody, human IgG1, kappa, V domains shown, Pertuzumab heavy chain with a mutated trastuzumab light chain) VH: EVQLVESGGGLVQPGGSLRLSCAASGFTFTDYTMDWVRQAPGKGLEWVADVNPNSGGSIYNQRFKGRFTLSVDRSKNTLYLQMNSLRAEDTAVYYCARNLGPSFYFDYWGQGTLVTVSS VL: not shown | binds
4 | mAb T5 (antibody, human IgG1, kappa, V domains shown, Pertuzumab heavy chain with a mutated trastuzumab light chain) VH: EVQLVESGGGLVQPGGSLRLSCAASGFTFTDYTMDWVRQAPGKGLEWVADVNPNSGGSIYNQRFKGRFTLSVDRSKNTLYLQMNSLRAEDTAVYYCARNLGPSFYFDYWGQGTLVTVSS VL: not shown | binds
5 | mAb T7 (antibody, human IgG1, kappa, V domains shown, Pertuzumab heavy chain with a mutated trastuzumab light chain) VH: EVQLVESGGGLVQPGGSLRLSCAASGFTFTDYTMDWVRQAPGKGLEWVADVNPNSGGSIYNQRFKGRFTLSVDRSKNTLYLQMNSLRAEDTAVYYCARNLGPSFYFDYWGQGTLVTVSS VL: not shown | binds
6 | mAb T8 (antibody, human IgG1, kappa, V domains shown, Pertuzumab heavy chain with a mutated trastuzumab light chain) VH: EVQLVESGGGLVQPGGSLRLSCAASGFTFTDYTMDWVRQAPGKGLEWVADVNPNSGGSIYNQRFKGRFTLSVDRSKNTLYLQMNSLRAEDTAVYYCARNLGPSFYFDYWGQGTLVTVSS VL: not shown | binds
7 | mAb T9 (antibody, human IgG1, kappa, V domains shown, Pertuzumab heavy chain with a mutated trastuzumab light chain) VH: EVQLVESGGGLVQPGGSLRLSCAASGFTFTDYTMDWVRQAPGKGLEWVADVNPNSGGSIYNQRFKGRFTLSVDRSKNTLYLQMNSLRAEDTAVYYCARNLGPSFYFDYWGQGTLVTVSS VL: not shown | binds
8 | mAb T10 (antibody, human IgG1, kappa, V domains shown, Pertuzumab heavy chain with a mutated trastuzumab light chain) VH: EVQLVESGGGLVQPGGSLRLSCAASGFTFTDYTMDWVRQAPGKGLEWVADVNPNSGGSIYNQRFKGRFTLSVDRSKNTLYLQMNSLRAEDTAVYYCARNLGPSFYFDYWGQGTLVTVSS VL: not shown | binds
9 | mAb T25 (antibody, V domains shown, Residue 56 counted along the entry is also G) VH: EVQLVESGGGLVQPGGSLRLSCAASGFTFTDYTMDWVRQAPGKGLEWVADVNPNSGASIYNQRFKGRFTLSVDRSKNTLYLQMNSLRAEDTAVYYCARNLGPSFYFDYWGQGTLVTVSS VL: DIQMTQSPSSLSASVGDRVTITCKASQDVSIGVAWYQQKPGKAPKLLIYSASYRYTGVPSRFSGSGSGTDFTLTISSLQPEDFATYYCQQYYIYPYTFGQGTKVEIKR | binds
10 | mAb T26 (antibody, V domains shown) VH: EVQLVESGGGLVQPGGSLRLSCAASGFTFADYTMDWVRQAPGKGLEWVADVNPNSGASIYNQRFKGRFTLSVDRSKNTLYLQMNSLRAEDTAVYYCARNLGPSFYFDYWGQGTLVTVSS VL: DIQMTQSPSSLSASVGDRVTITCKASQDVSIGVAWYQQKPGKAPKLLIYSASYRYTGVPSRFSGSGSGTDFTLTISSLQPEDFATYYCQQYYIYPYTFGQGTKVEIKR | binds
11 | mAb T43 (antibody, V domains shown) VH: EVQLVESGGGLVQPGGSLRLSCAASGFTFADYTMDWVRQAPGKGLEWVADVNPNSGASIYNQRFKGRFTLSVDRSKNTLYLQMNSLRAEDTAVYYCARNLGPSFYFDYWGQGTLVTVSS VL: DIQMTQSPSSLSASVGDRVTITCRASQDVSTAVAWYQQKPGKAPKLLIYSASFLYYGVPSRFSGSRSGTDFTLTISSLQPEDFATYYCQQHYTWPPTFGQGTKVEIKR | binds

biological target: T1, HER2 extracellular domain; experiment: ELISA, HER2 ECD coated on plate; T12 is the weaker comparator
Description: as §1

Row | Binder | binding result
12 | mAb T12 (antibody, V domains shown) VH: not shown VL: DIQMTQSPSSLSASVGDRVTITCKASQDVSIGVAWYQQKPGKAPKLLIYSASYRYTGVPSRFSGSGSGTDFTLTISSLQPEDFATYYCQQYYIYPYTFGQGTKVEIKR | binds

— patent publication US20200140568A1 (XUANZHU BIOPHARMACEUTICAL, published 2020)
